Measurements reported in patent US20220089722A1 (NANTONG YICHEN BIOPHARMA, published 2022).

Assays:
EGFR on F98-EGFR cells [1] = target: T1, EGFR on F98-EGFR cells (UniProt P00533 25-1210, limits assumed); assay: flow cytometry on F98-EGFR cells; protein purified on Protein A resin
T1 construct: whole, on cells

[2] = target: T2, CD3 on T cells (Jurkat T cells; PBMC-T cells); assay: flow cytometry on Jurkat T cells; protein purified on Protein A resin
T2 construct: whole, on cells; the target is inferred from the anti-CD3 arm of the constructs
T2 sequence (P07766 23-207): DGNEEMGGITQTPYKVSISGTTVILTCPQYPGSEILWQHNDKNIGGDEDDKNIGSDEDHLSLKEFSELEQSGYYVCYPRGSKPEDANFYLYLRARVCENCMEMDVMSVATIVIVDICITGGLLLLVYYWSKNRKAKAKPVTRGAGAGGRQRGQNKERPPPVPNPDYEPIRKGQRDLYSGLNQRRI

EGFR on F98-EGFR cells [3] = target: T1, EGFR on F98-EGFR cells; assay: cell-based or functional assay
EGFR on F98-EGFR cells [4] = target: T1, EGFR on F98-EGFR cells; assay: flow cytometry on F98-EGFR cells; protein purified on CH1 resin
[5] = target: T2, CD3 on T cells (Jurkat T cells; PBMC-T …); assay: flow cytometry on Jurkat T cells; protein purified on CH1 resin
[6] = target: T2, CD3 on T cells (Jurkat T cells; PBMC-T …); assay: flow cytometry on Jurkat T cells
Experimental: Jurkat cells (a medium containing 10% FBS) were cultured. 2×10⁵ cells were washed by precooled PBS for 3 times, and blocked by 2% FBS (soluble to PBS). Purified IgFD-11, IgFD-8, IgFD-25, IgFD-26, IgFD-31 or IgFD-36 (aEGFR expressed in a laboratory as a control) were added and incubated for 2 h at 4° C. (cells were gently mixed during incubation), followed by 2% FBS(in PBS) wash. The cells were incubated by FITC anti-human IgGFc (KPL, Inc., MD) for 1 h at 4° C. and subjected to flow cytometry analysis after washing with 2% FBS(in PBS).

EGFR on F98-EGFR cells [7] = target: T1, EGFR on F98-EGFR cells; assay: flow cytometry on F98-EGFR cells
Experimental: F98-EGFR cells (a DMEM containing 10% FBS, 200 μg/ml G418) were cultured. 2×10⁵ cells were washed by precooled PBS for 3 times, and blocked by 2% FBS (soluble to PBS). IgFD-8, IgFD-9, IgFD-10, IgFD-11, IgFD-18, IgFD-19, IgFD-25, IgFD-26 or IgFD-31 (aEGFR expressed in a laboratory as a control) was added and incubated for 2 h at 4° C. (cells were gently mixed during incubation), unbounded antibodies were washed by 2% FBS (soluble to PBS), and then the remaining cells were incubated by FITC anti-human IgGFc(KPL, Inc., MD) for 1 h at 4° C., and washed by 2% FBS (soluble to PBS) for flow cytometry analysis. As shown in FIG. 7 and Table 4, the anti-CD3/anti-EGFR heterodimers in different forms of fusion could bind to EGFR on F98-EGFR cells, and there was no significant difference in the binding capacity of different heterodimers to F98-EGFR.

Row | Binder | Kd (EGFR on F98-EGFR cells [1]) [nM] | Kd [2] [nM] | Promotion for the specific killing effect of PBMCs on target cells by heterodimers (EC50, pM); F98-EGFR cells, LDH assay; IgFD-30(CH1) (EGFR on F98-EGFR cells [3]) [pM] | Promotion for the specific killing effect of PBMCs on target cells by heterodimers (EC50, pM); F98-EGFR cells, LDH assay; IgFD-30(ProA) (EGFR on F98-EGFR cells [3]) [pM] | Kd (EGFR on F98-EGFR cells [4]) [nM] | Kd [5] [nM] | Kd [6] [nM] | Kd (EGFR on F98-EGFR cells [7]) [nM] | Promotion for the specific killing effect of PBMCs on target cells by heterodimers (EC50, pM); F98-EGFR cells, LDH assay (EGFR on F98-EGFR cells [3]) [pM]
1 | IgFD-30(anti-CD3/EGFR) (bispecific antibody, human IgG1, kappa, (ProA)/(CH1) = purification resin; also called IgFD-30(ProA); IgFD-30(CH1)) chain 1: EVQLVESGGGLVQPGGSLRLSCAASGFTFNTYAMNWVRQAPGKGLEWVARIRSKYNNYATYYADSVKDRFTISRDDSKNTLYLQMNSLRAEDTAVYYCVRHGNFGNSYVSWFAYWGQGTLVTVSSASTKGPSVFPLAPSSKSTSGGTAALGCLVKDYFPEPVTVSWNSGALTSGVHTFPAVLQSSGLYSLSSVVTVPSSSLGTQTYICNVNHKPSNTKVDKKVEPKSCDKTHTCPPCPAPPVAGPSVFLFPPKPKDTLMISRTPEVTCVVVDVSHEDPEVKFNWYVDGVEVHNAKTKPREEQYNSTYRVVSVLTVLHQDWLNGKEYKCKVSNKGLPSSIEKTISKAKGQPREPQVYTLPPCRDELTKNQVSLWCLVKGFYPSDIAVEWESNGQPENNYKTTPPVLDSDGSFFLYSKLTVDKSRWQQGNVFSCSVMHEALHNHYTQKSLSLSPGKGGSGGSGGGGSGGGGSDIQMTQSPSSLSASVGDRVTITCQASQDISNYLNWYQQKPGKAPKLLIYDASNLETGVPSRFSGSGSGTDFTFTISSLQPEDIATYFCQHFDHLPLAFGGGTKVEIK chain 2: QAVVTQEPSLTVSPGGTVTLTCRSSTGAVTTSNYANWVQQKPDHLFRGLIGGTNKRAPGTPARFSGSLLGDKAALTISGAQPEDEAEYYCALWYSNLWVFGGGTKLTVLKRTVAAPSVFIFPPSDEQLKSGTASVVCLLNNFYPREAKVQWKVDNALQSGNSQESVTEQDSKDSTYSLSSTLTLSKADYEKHKVYACEVTHQGLSSPVTKSFNRGECDKTHTCPPCPAPPVAGPSVFLFPPKPKDTLMISRTPEVTCVVVDVSHEDPEVKFNWYVDGVEVHNAKTKPREEQYNSTYRVVSVLTVLHQDWLNGKEYKCKVSNKGLPSSIEKTISKAKGQPREPQVCTLPPSRDELTKNQVSLSCAVKGFYPSDIAVEWESNGQPENNYKTTPPVLDSDGSFFLVSKLTVDKSRWQQGNVFSCSVMHEALHNHYTQKSLSLSPGKGGSGGSGGGGSGGGGSQVQLQESGPGLVKPSETLSLTCTVSGGSVSSGDYYWTWIRQSPGKGLEWIGHIYYSGNTNYNPSLKSRLTISIDTSKTQFSLKLSSVTAADTAIYYCVRDRVTGAFDIWGQGTMVTVSS | 131 | 6.74 | 435 | 651 | 86.3 | 7.35 |  |  | 
2 | IgFD-31(anti-CD3/EGFR) (bispecific antibody) chain 1: EVQLVESGGGLVQPGGSLRLSCAASGFTFNTYAMNWVRQAPGKGLEWVARIRSKYNNYATYYADSVKDRFTISRDDSKNTLYLQMNSLRAEDTAVYYCVRHGNFGNSYVSWFAYWGQGTLVTVSSASTKGPSVFPLAPSSKSTSGGTAALGCLVKDYFPEPVTVSWNSGALTSGVHTFPAVLQSSGLYSLSSVVTVPSSSLGTQTYICNVNHKPSNTKVDKKVEPKSCGGSGAKLAALKAKLAALKGGGGSDKTHTCPPCPAPPVAGPSVFLFPPKPKDTLMISRTPEVTCVVVDVSHEDPEVKFNWYVDGVEVHNAKTKPREEQYNSTYRVVSVLTVLHQDWLNGKEYKCKVSNKGLPSSIEKTISKAKGQPREPQVYTLPPSRDELTKNQVSLTCLVKGFYPSDIAVEWESNGQPENNYKTTPPVLDSDGSFFLYSKLTVDKSRWQQGNVFSCSVMHEALHNHYTQKSLSLSPGK chain 2: QAVVTQEPSLTVSPGGTVTLTCRSSTGAVTTSNYANWVQQKPDHLFRGLIGGTNKRAPGTPARFSGSLLGDKAALTISGAQPEDEAEYYCALWYSNLWVFGGGTKLTVLKRTVAAPSVFIFPPSDEQLKSGTASVVCLLNNFYPREAKVQWKVDNALQSGNSQESVTEQDSKDSTYSLSSTLTLSKADYEKHKVYACEVTHQGLSSPVTKSFNRGECGGGGSELAALEAELAALEAGGSGDKTHTCPPCPAPPVAGPSVFLFPPKPKDTLMISRTPEVTCVVVDVSHEDPEVKFNWYVDGVEVHNAKTKPREEQYNSTYRVVSVLTVLHQDWLNGKEYKCKVSNKGLPSSIEKTISKAKGQPREPQVYTLPPSRDELTKNQVSLTCLVKGFYPSDIAVEWESNGQPENNYKTTPPVLDSDGSFFLYSKLTVDKSRWQQGNVFSCSVMHEALHNHYTQKSLSLSPGKGGSGGSGGGGSGGGGSDIQMTQSPSSLSASVGDRVTITCQASQDISNYLNWYQQKPGKAPKLLIYDASNLETGVPSRFSGSGSGTDFTFTISSLQPEDIATYFCQHFDHLPLAFGGGTKVEIKGGGGSGGGGSGGGGSQVQLQESGPGLVKPSETLSLTCTVSGGSVSSGDYYWTWIRQSPGKGLEWIGHIYYSGNTNYNPSLKSRLTISIDTSKTQFSLKLSSVTAADTAIYYCVRDRVTGAFDIWGQGTMVTVSS |  |  |  |  |  |  | 4.16 | 5.47 | 
3 | IgFD-26(anti-CD3/EGFR) (bispecific antibody, human IgG1, kappa, N297A) chain 1: not shown chain 2: QAVVTQEPSLTVSPGGTVTLTCRSSTGAVTTSNYANWVQQKPDHLFRGLIGGTNKRAPGTPARFSGSLLGDKAALTISGAQPEDEAEYYCALWYSNLWVFGGGTKLTVLKRTVAAPSVFIFPPSDEQLKSGTASVVCLLNNFYPREAKVQWKVDNALQSGNSQESVTEQDSKDSTYSLSSTLTLSKADYEKHKVYACEVTHQGLSSPVTKSFNRGECDKTHTCPPCPAPELLGGPSVFLFPPKPKDTLMISRTPEVTCVVVDVSHEDPEVKFNWYVDGVEVHNAKTKPREEQYASTYRVVSVLTVLHQDWLNGKEYKCKVSNKALPAPIEKTISKAKGQPREPQVCTLPPSREEMTKNQVSLSCAVKGFYPSDIAVEWESNGQPENNYKTTPPVLDSDGSFFLVSKLTVDKSRWQQGNVFSCSVMHEALHNHYTQKSLSLSPGKGGSGGSGGGGSGGGGSDIQMTQSPSSLSASVGDRVTITCQASQDISNYLNWYQQKPGKAPKLLIYDASNLETGVPSRFSGSGSGTDFTFTISSLQPEDIATYFCQHFDHLPLAFGGGTKVEIKGGGGSGGGGSGGGGSQVQLQESGPGLVKPSETLSLTCTVSGGSVSSGDYYWTWIRQSPGKGLEWIGHIYYSGNTNYNPSLKSRLTISIDTSKTQFSLKLSSVTAADTAIYYCVRDRVTGAFDIWGQGTMVTVSS |  |  |  |  |  |  | 4.23 | 5.28 | 105
4 | IgFD-25(anti-CD3/EGFR) (bispecific antibody, human IgG1, kappa) chain 1: EVQLVESGGGLVQPGGSLRLSCAASGFTFNTYAMNWVRQAPGKGLEWVARIRSKYNNYATYYADSVKDRFTISRDDSKNTLYLQMNSLRAEDTAVYYCVRHGNFGNSYVSWFAYWGQGTLVTVSSASTKGPSVFPLAPSSKSTSGGTAALGCLVKDYFPEPVTVSWNSGALTSGVHTFPAVLQSSGLYSLSSVVTVPSSSLGTQTYICNVNHKPSNTKVDKKVEPKSCDKTHTCPPCPAPPVAGPSVFLFPPKPKDTLMISRTPEVTCVVVDVSHEDPEVKFNWYVDGVEVHNAKTKPREEQYNSTYRVVSVLTVLHQDWLNGKEYKCKVSNKGLPSSIEKTISKAKGQPREPQVYTLPPCRDELTKNQVSLWCLVKGFYPSDIAVEWESNGQPENNYKTTPPVLDSDGSFFLYSKLTVDKSRWQQGNVFSCSVMHEALHNHYTQKSLSLSPGK chain 2: QAVVTQEPSLTVSPGGTVTLTCRSSTGAVTTSNYANWVQQKPDHLFRGLIGGTNKRAPGTPARFSGSLLGDKAALTISGAQPEDEAEYYCALWYSNLWVFGGGTKLTVLKRTVAAPSVFIFPPSDEQLKSGTASVVCLLNNFYPREAKVQWKVDNALQSGNSQESVTEQDSKDSTYSLSSTLTLSKADYEKHKVYACEVTHQGLSSPVTKSFNRGECDKTHTCPPCPAPPVAGPSVFLFPPKPKDTLMISRTPEVTCVVVDVSHEDPEVKFNWYVDGVEVHNAKTKPREEQYNSTYRVVSVLTVLHQDWLNGKEYKCKVSNKGLPSSIEKTISKAKGQPREPQVCTLPPSRDELTKNQVSLSCAVKGFYPSDIAVEWESNGQPENNYKTTPPVLDSDGSFFLVSKLTVDKSRWQQGNVFSCSVMHEALHNHYTQKSLSLSPGKGGSGGSGGGGSGGGGSDIQMTQSPSSLSASVGDRVTITCQASQDISNYLNWYQQKPGKAPKLLIYDASNLETGVPSRFSGSGSGTDFTFTISSLQPEDIATYFCQHFDHLPLAFGGGTKVEIKGGGGSGGGGSGGGGSQVQLQESGPGLVKPSETLSLTCTVSGGSVSSGDYYWTWIRQSPGKGLEWIGHIYYSGNTNYNPSLKSRLTISIDTSKTQFSLKLSSVTAADTAIYYCVRDRVTGAFDIWGQGTMVTVSS |  |  |  |  |  |  | 7.72 | 1.12 | 11
